Results from article PMC2409314, “Expression of zebrafish pax6b in pancreas is regulated by two enhancers containing highly conserved cis-elements bound by PDX1, PBX and PREP factors”.

B1: PA1b (dsDNA)
DNA 1: GATCGCATCACGATCAATCACAGCGCT
DNA 2: AGCGCTGTGATTGATCGTGATGCGATC
B2: PC3b (dsDNA)
DNA 1: GATCTAGCTCTTAATTGTGGTT
DNA 2: AACCACAATTAAGAGCTAGATC

Tests used:
Assay in all cases: EMSA; 2 ug nuclear extract or 1 ul ivt protein, 0.1 ng 32P ds oligo, 1 ug poly(dI-dC); antiserum preincubation 15 min at room temperature; buffer, salt and pH not given (by reference)
[1] = target: PBX1a (long isoform);PREP1;PDX1 (STF-1) (;;, UniProt P41778;P55347;P52947 1-430;1-436;1-283, ||); conditions: protein: ivt;ivt;recombinant; tags: ;;; copies: 1;1;1; label: 32P (Klenow); only top strand given; 5' GATC end, Klenow labelled
[2] = target: T1, PBX1a (long isoform);PREP1 (;, UniProt P41778;P55347 1-430;1-436, |); conditions: protein: ivt;ivt; tags: ;; copies: 1;1; label: 32P (Klenow); only top strand given; 5' GATC end, Klenow labelled
T1 sequence 1: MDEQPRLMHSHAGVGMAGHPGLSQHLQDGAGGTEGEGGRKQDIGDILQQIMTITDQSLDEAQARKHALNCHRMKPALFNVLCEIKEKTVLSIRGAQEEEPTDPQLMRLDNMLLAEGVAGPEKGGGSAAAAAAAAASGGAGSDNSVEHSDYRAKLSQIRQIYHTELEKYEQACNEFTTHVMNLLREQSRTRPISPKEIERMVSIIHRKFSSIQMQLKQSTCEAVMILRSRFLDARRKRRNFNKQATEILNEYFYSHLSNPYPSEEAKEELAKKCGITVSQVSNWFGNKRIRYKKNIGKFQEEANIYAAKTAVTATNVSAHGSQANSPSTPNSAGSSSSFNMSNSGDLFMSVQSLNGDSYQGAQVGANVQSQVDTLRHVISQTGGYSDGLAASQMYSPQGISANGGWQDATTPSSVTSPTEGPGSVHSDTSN
T1 sequence 2: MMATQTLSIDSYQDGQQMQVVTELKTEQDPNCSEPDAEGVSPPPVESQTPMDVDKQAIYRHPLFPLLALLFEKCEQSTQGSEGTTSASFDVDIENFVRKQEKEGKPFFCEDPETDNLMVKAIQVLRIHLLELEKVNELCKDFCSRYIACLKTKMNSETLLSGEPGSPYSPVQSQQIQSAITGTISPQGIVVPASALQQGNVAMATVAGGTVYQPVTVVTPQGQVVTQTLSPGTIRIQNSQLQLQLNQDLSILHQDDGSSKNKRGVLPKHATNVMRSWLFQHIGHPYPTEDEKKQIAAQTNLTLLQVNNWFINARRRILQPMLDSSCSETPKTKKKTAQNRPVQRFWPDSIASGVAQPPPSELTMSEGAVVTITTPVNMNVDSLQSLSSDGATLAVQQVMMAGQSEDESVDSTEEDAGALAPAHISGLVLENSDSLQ

PDX1 (STF-1) = PDX1 (STF-1) (UniProt P52947 1-283); conditions: protein: recombinant; label: 32P (Klenow); only top strand given; 5' GATC end, Klenow labelled
PDX1 (STF-1), sequence (P52947 whole entry): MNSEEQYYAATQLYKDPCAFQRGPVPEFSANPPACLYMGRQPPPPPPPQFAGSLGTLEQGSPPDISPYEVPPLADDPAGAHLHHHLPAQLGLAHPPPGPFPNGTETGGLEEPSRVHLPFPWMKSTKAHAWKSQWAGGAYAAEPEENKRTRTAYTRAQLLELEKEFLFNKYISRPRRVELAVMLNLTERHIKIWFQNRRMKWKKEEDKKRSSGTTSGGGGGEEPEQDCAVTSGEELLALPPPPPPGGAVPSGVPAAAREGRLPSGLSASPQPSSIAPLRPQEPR

PBX1a (long isoform);PREP1;PDX1 (STF-1), sequence (P52947 whole entry, canonical isoform, one chain of several): as the sequence (P52947 whole entry) above

Row | Binder | binding result [1] | binding result [2] | binding result (PDX1 (STF-1))
1 | B1 | binds | binds | –
2 | B2 | – | – | binds
